T1: IQGAP1^C794 (C-terminal half of human IQGAP1 with the GRD, RGCT and CT domains) (human, UniProt P46940 863-1657)
T1 sequence (looked up): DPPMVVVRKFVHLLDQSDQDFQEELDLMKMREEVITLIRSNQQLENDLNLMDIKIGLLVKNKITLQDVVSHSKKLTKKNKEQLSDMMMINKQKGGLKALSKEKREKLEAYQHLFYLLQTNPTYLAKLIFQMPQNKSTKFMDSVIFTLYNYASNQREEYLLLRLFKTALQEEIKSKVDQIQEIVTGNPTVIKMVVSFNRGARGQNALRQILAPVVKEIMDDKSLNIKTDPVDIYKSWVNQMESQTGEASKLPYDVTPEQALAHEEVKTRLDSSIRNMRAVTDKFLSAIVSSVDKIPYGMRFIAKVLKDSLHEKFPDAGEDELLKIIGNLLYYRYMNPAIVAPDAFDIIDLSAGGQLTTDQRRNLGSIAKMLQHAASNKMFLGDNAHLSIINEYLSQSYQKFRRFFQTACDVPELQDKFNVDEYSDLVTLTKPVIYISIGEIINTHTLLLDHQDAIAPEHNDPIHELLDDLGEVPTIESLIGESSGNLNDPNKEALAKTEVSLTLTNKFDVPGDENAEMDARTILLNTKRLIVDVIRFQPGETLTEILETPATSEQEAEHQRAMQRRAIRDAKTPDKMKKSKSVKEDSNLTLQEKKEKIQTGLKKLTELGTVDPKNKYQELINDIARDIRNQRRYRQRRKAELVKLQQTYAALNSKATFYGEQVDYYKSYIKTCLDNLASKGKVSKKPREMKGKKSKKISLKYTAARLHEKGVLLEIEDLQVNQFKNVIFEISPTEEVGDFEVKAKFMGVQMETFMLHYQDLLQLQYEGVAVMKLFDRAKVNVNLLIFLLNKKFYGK

T2: IQGAP2^C795 (C-terminal fragment of IQGAP2) (human, UniProt Q13576 780-1575)
T2 construct: IQGAP2, aa 780-1575; also called IQGAP2^C975
T2 sequence (looked up): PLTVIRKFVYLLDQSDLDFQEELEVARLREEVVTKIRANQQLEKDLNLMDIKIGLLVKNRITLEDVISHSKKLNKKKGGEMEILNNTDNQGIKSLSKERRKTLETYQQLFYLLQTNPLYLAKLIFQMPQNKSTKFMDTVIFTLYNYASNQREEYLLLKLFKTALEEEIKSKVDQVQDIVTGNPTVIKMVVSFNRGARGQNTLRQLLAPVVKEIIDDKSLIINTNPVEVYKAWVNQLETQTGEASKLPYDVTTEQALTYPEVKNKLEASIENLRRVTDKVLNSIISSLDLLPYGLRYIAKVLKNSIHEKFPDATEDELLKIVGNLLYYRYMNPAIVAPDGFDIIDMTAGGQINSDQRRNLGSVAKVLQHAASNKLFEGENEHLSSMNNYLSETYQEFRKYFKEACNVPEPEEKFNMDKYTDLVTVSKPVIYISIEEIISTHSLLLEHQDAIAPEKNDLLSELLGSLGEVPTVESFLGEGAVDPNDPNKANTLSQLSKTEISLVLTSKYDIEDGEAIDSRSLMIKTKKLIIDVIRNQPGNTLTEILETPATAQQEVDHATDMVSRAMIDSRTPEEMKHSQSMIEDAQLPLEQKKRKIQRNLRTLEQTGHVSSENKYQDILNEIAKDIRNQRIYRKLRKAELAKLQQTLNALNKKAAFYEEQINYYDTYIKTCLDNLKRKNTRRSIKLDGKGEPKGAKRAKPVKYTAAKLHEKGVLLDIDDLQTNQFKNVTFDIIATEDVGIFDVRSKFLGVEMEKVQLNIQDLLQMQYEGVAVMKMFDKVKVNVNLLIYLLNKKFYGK


Key:
Settings in all cases: both partners purified
CDC42^Q61L•GppNHp = CDC42^Q61L•GppNHp (human, UniProt P60953 1-178, Q61L); test: SEC; analytical SEC of IQGAP1 GRD with CDC42^Q61L•GppNHp or CDC42^WT•GppNHp
Sequence of CDC42^Q61L•GppNHp (P60953 1-178 Q61L): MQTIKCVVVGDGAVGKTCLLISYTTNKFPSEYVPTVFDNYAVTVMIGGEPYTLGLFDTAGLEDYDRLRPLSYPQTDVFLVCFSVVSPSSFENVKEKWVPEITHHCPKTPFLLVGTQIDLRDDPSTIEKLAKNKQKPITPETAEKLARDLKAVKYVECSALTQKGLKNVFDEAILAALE

CDC42 (aa 1-178) = CDC42 (aa 1-178) (human, UniProt P60953 1-178); test: as above
Sequence of CDC42 (aa 1-178) (P60953 1-178): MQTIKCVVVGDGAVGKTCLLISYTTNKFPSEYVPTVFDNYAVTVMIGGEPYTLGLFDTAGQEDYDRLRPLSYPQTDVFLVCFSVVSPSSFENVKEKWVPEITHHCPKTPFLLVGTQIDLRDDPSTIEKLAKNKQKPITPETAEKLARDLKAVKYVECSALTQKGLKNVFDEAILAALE

[1] = biological target: T1, IQGAP1^C794 (C-terminal half of human …); test: stopped-flow fluorescence spectrometry; kon from 0.2 µM mGppNHp-bound RHO GTPase with 2-8 µM IQGAP1^C794; koff by displacing with 10 µM unlabeled RAC1-GppNHp from 2 µM IQGAP1^C794 with 0.2 µM GTPase; Kd calculated from the rate constants; 25 °C
RAC1 (aa 1-179) = RAC1 (aa 1-179) (human, UniProt P63000 1-179); test: stopped-flow fluorescence spectrometry; competition: 4 µM IQGAP1^C794 premixed with 40 µM RAC-binding protein (10-fold molar excess), mixed 1:1 with 0.4 µM RAC1•mGppNHp; 25 °C
[2] = biological target: T2, IQGAP2^C795 (C-terminal fragment of …); test: stopped-flow fluorescence spectrometry; association (kobs): 2 µM IQGAP1^C794 or IQGAP2^C795 mixed with 0.2 µM mGppNHp-bound RHO GTPase; 30 mM Tris-HCl pH 7.5, 10 mM K2HPO4/KH2PO4 pH 7.4, 2 mM MgCl2, 3 mM DTT, 25 °C

| Binder | binding result [1] | binding result (RAC1 (aa 1-179)) | other results |
| --- | --- | --- | --- |
| IQGAP1^GRD (RASGAP-related domain of IQGAP1) (domain or fragment, human, UniProt P46940 962-1345, looked up) SKEKREKLEAYQHLFYLLQTNPTYLAKLIFQMPQNKSTKFMDSVIFTLYNYASNQREEYLLLRLFKTALQEEIKSKVDQIQEIVTGNPTVIKMVVSFNRGARGQNALRQILAPVVKEIMDDKSLNIKTDPVDIYKSWVNQMESQTGEASKLPYDVTPEQALAHEEVKTRLDSSIRNMRAVTDKFLSAIVSSVDKIPYGMRFIAKVLKDSLHEKFPDAGEDELLKIIGNLLYYRYMNPAIVAPDAFDIIDLSAGGQLTTDQRRNLGSIAKMLQHAASNKMFLGDNAHLSIINEYLSQSYQKFRRFFQTACDVPELQDKFNVDEYSDLVTLTKPVIYISIGEIINTHTLLLDHQDAIAPEHNDPIHELLDDLGEVPTIESLIGESS |  |  | stoichiometry N (CDC42^Q61L•GppNHp): 2 CDC42^Q61L per GRD (printed as 2:1; order taken from p-0007); stoichiometry N (CDC42 (aa 1-178)): 1 GRD per CDC42 (printed as 2:2) |
| CDC42 T25K/N26D (natural protein) not shown | binds |  |  |
| PAK1 GBD (GTPase-binding domain of PAK1) (domain or fragment) SILPGDKTNKKKEKERPEISLPSDFEHTIHVGFDAVTGEFTGMPEQWARLLQTSNITKSEQKKNPQAVLDVLEFYNSKKTSNSQK |  | binds |  |
| CDC42 Q74D (natural protein) not shown | binds |  |  |
| RHOG (aa 1-178) (natural protein) not shown | binds |  | binding result [2]: binds |

Continued, in another order:

| binding result [1] | binding result (RAC1 (aa 1-179)) | Binder | other results |
| --- | --- | --- | --- |
| binds |  | CDC42 V85D/S88D (natural protein) not shown |  |
|  | binds | p50^GAP (GAP domain) (domain or fragment) HVKLEQLGIPRQVLKYDDFLKSTQKSPATAPKPMPPRPPLPNQQFGVSLQHLQEKNPEQEPIPIVLRETVAYLQAHALTTEGIFRRSANTQVVREVQQKYNMGLPVDFDQYNELHLPAVILKTFLRELPEPLLTFDLYPHVVGFLNIDESQRVPATLQVLQTLPEENYQVLRFLTAFLVQISAHSDQNKMTNTNLAVVFGPNLLWAKDAAITLKAINPINTFTKFLLDHQGELFPSPDPSGL |  |
| binds |  | RHOA-to-RAC1 variant (RHOA K27T, D28N, E47M, E54N, D76Q) (natural protein) not shown |  |
|  | binds | DOCK2 DHR2 (DOCK homology region 2 domain of DOCK2) (domain or fragment, human DOCK2 DHR2 domain, aa 1211-1624; also called DOCK DHR2; source: pOPIN vector, purified; the methods say all proteins except IQGAP2^C795 were isolated as GST fusions with GST cleaved) YKDNNREEMYIRYLYKLRDLHLDCDNYTEAAYTLLLHTWLLKWSDEQCASQVMQTGQQHPQTHRQLKETLYETIIGYFDKGKMWEEAISLCKELAEQYEMEIFDYELLSQNLIQQAKFYESIMKILRPKPDYFAVGYYGQGFPSFLRNKVFIYRGKEYERREDFQMQLMTQFPNAEKMNTTSAPGDDVKNAPGQYIQCFTVQPVLDEHPRFKNKPVPDQIINFYKSNYVQRFHYSRPVRRGTVDPENEFASMWIERTSFVTAYKLPGILRWFEVVHMSQTTISPLENAIETMSTANEKILMMINQYQSDETLPINPLSMLLNGIVDPAVMGGFAKYEKAFFTEEYVRDHPEDQDKLTHLKDLIAWQIPFLGAGIKIHEKRVSDNLRPFHDRMEECFKNLKMKVEKEYGVREMPD |  |

From article PMC8625570, “Selectivity Determinants of RHO GTPase Binding to IQGAPs” (International Journal of Molecular Sciences, 2021)
